Test results from article PMC10302166, “Molecular basis and dual ligand regulation of tetrameric estrogen receptor α/14-3-3ζ protein complex” (The Journal of Biological Chemistry, 2023).
Where no end group is shown, it is not given here.

How the values were obtained:
[1] = biological target: ERα-pT594-strep (ERαLBD-F-strep phosphorylated in vitro by PKA) (human (from the printed UniProt entry), UniProt P03372 302-595, S305A | F591R | P592R, phosphothreonine at T594); assay: FP; 100 uM E2
[2] = biological target: T1, ERα-Y537S/14-3-3ζ protein complex (human (from the printed UniProt entry) …, UniProt P03372 302-595; P63104 1-245, Y537S | F591R | P592R, phosphothreonine at T594); assay: FP; 100 uM E2
[3] = biological target: T2, ERα-pT594-strep (ERαLBD-F-strep phosphorylated in vitro by PKA) (human (from the printed UniProt entry), UniProt P03372 302-595, S305A | F591R | P592R, phosphothreonine at T594); assay: fluorescence polarisation; fluorescence anisotropy; ERα or complex titrated (2-fold series from 40 μM ERα) to 20 nM fluorescein-labeled SRC1 peptide; DMSO control; 20 mM HEPES pH 7.5, 150 mM NaCl, 10 mM MgCl2, 0.1% Tween20, 0.1% BSA; room temperature; apparent KD (4PL fit); conditions: both partners purified
T2 construct: also called ERα(PKA)-pT594-strep; phosphorylated ERα; source: E. coli NiCo21 (DE3), phosphorylated in vitro with His-PKA-strep and ATP, purified (Ni-NTA, Strep-Tactin, SEC); not shown: His tag, N-terminal, cleaved; SUMO, N-terminal, cleaved; strep-tag, C-terminal, kept
T2 sequence (looked up): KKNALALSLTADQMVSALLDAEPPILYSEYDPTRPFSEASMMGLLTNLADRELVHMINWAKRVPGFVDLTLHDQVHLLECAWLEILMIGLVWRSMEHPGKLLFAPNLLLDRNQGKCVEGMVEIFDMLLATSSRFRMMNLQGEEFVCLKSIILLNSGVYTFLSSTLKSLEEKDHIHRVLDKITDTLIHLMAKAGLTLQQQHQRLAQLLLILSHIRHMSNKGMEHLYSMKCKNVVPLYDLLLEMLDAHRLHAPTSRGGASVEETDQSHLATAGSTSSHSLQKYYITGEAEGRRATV

[4] = biological target: T3, ERα-Y537S LBD-F-strep (PKA-responsive), without 14-3-3ζ (human (from the printed UniProt entry), UniProt P03372 302-595, S305A | Y537S | F591R | P592R); assay: as above; conditions: both partners purified
T3 construct: the methods list ERα(PKA)-strep and ERα(PKA)-pT594-strep 'for WT ERα and Y537S mutant'; also called apo ERα-Y537S
T3 sequence (looked up): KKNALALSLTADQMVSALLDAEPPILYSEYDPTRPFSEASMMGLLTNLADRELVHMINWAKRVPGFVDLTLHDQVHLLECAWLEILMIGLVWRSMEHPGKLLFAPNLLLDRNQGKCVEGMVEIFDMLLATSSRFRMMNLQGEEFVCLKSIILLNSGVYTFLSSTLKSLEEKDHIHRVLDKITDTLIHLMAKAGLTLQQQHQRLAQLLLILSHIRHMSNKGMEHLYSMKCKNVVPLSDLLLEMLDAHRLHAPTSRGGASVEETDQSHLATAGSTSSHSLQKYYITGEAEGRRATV

[5] = biological target: T4, ERαLBD-F-strep (PKA-responsive, non-phosphorylated) (human (from the printed UniProt entry), UniProt P03372 302-595, S305A | F591R | P592R); assay: as above; conditions: both partners purified
T4 construct: also called ERα-strep; ERα(PKA)-strep; source: E. coli NiCo21 (DE3), purified (Ni-NTA, SUMO cleavage, Strep-Tactin, SEC); not shown: His tag, N-terminal, cleaved; SUMO, N-terminal, cleaved; strep-tag, C-terminal, kept
T4 sequence (looked up): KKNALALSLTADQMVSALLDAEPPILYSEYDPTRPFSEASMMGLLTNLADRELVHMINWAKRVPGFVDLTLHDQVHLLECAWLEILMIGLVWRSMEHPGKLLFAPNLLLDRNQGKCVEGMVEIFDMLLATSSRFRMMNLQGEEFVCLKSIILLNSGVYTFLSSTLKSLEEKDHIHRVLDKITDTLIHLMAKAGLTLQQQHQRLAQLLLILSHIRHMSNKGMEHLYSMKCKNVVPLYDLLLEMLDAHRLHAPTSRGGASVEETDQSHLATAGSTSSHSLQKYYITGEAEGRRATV

[6] = biological target: T2, ERα-pT594-strep (ERαLBD-F-strep …); assay: fluorescence polarisation; as a10 but in the presence of 100 μM E2; apparent KD; conditions: both partners purified
[7] = biological target: T3, ERα-Y537S LBD-F-strep (PKA-responsive), …; assay: as above; conditions: both partners purified
[8] = biological target: T4, ERαLBD-F-strep (PKA-responsive, …); assay: as above; conditions: both partners purified
[9] = biological target: T1, ERα-Y537S/14-3-3ζ protein complex; assay: FP; DMSO

T1 sequence (P63104 whole entry, stated change not applied, one chain of several): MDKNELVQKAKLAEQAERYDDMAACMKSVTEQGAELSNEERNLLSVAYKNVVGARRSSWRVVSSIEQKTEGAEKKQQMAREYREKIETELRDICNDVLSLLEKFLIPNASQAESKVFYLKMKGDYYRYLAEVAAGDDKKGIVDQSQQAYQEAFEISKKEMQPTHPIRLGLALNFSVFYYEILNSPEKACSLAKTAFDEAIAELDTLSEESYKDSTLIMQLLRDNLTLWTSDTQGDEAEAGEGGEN

- Kd [1]: 900 nM
- Kd [2]: 400 nM
- Kd [3]: ~20000 nM
- Kd [4]: 1700 nM
- Kd [5]: ~20000 nM
- Kd [6]: 1000 nM
- Kd [7]: 800 nM
- Kd [8]: 1000 nM
- Kd [9]: 700 nM
Binder: LTERHKILHRLLQEGSPSD (also: fluorescein (FITC) label, position not given here) [fluorescein-labeled SRC-1 cofactor peptide (LXXLL motif of SRC-1/NCoA-1)]
